For assay [1], the target named is T1, human GLP-1 receptor (human, UniProt P43220 24-463).
T1 construct: whole, on cells
Put plainly: competitive binding (SPA): displacement of 125I-GLP-1(7-36)NH2 from BHK cell membranes with human GLP-1 receptor; low HSA (max. 0.001% final). On the technique in general: Displacement assays read how much labelled ligand stays bound in the presence of the test substance.
Description: (§1) For the receptor binding assay in the presence of low HSA (0.005%) 50 μl of the assay buffer was added to each well of an assay plate. […] For the receptor binding assay in the presence of high HSA (2%) 50 μl of the 8% albumin stock was added to each well of an assay plate. […] Cell membrane aliquots were thawed and diluted to their working concentration. Fifty μl were added to each well in the assay plate. […] WGA SPA beads were suspended in assay buffer at 20 mg/ml. The suspension was diluted to 10 mg/ml in assay buffer just prior to addition to the assay plate. Fifty μl were added to each well in the assay plate. […] A 25 μl aliquot was reserved for measuring total counts/well. […] The assay plate was incubated for 2 h at 30° C. […] The assay plate was centrifuged for 10 min. […] The assay plate was read in a Packard TopCount NXT instrument.

For assay [2], the target named is T1, human GLP-1 receptor. In words: cell-based or functional assay.
Assay [3] concerns the target T1, human GLP-1 receptor. Put plainly: competitive binding (SPA): displacement of 125I-GLP-1(7-36)NH2 from BHK cell membranes with human GLP-1 receptor; high HSA (2.0% final).
Description: as §1

Numbered stars: 1 amine (or outer) side, 2 acyl side, 3 side chain; on linkers, the order of the positions; unused ones are H or OH. Square brackets hold non-standard residues; d marks the D form. Side chains are listed from the residue outwards. Ends that are not written are not given here. * marks the point of attachment. C20 diacid = O=C(O)CCCCCCCCCCCCCCCCCCC(=O)*; γGlu = O=C(O)[C@H](CCC(=O)[*:2])N[*:1]; Trx = NC[C@H]1CC[C@H](C(=O)O)CC1; AEEA = NCCOCCOCC(=O)O; Aib = CC(C)(N)C(=O)O

This note sets out measurements from patent US20150011462A1 (Novo Nordisk, published 2015).

For orientation: IC50 means the midpoint of a concentration-inhibition curve.

B1: N{Alpha}([Aib8,Glu22,Arg26,Arg34]-GLP-1-(7-37)-peptidyl)-N{Epsilon}[2-[2-[2-[[2-[2-[2-[[2-[2-[2-[[2-[2-[2-[[2-[2-[2-[[2-[2-[2-[[(4S)-4-carboxy-4-[[4-[(19-carbox … (peptide)
peptide: H[Aib]EGTFTSDVSSYLEEQAAREFIAWLVRGRGK([AEEA-AEEA-AEEA-AEEA-AEEA-AEEA-γGlu-Trx-C20 diacid])GGSK([AEEA-AEEA-AEEA-AEEA-AEEA-AEEA-γGlu-Trx-C20 diacid])
notes: Double-acylated, C-terminally extended GLP-1 analogue made by SPPS; also called 24
As for B1, the IC50 with human GLP-1 receptor [1] stood at 0.67 nM; with human GLP-1 receptor [3] it was 84 nM. The “EC50 (pM), in vitro potency, CRE luciferase reporter gene assay in BHK cells expressing the human GLP-1 receptor” value (“EC50 (pM), in vitro potency” below) in the assay with human GLP-1 receptor [2] amounted to 7 pM.

B2: N{Alpha}([Aib8,Glu22,Arg26,Arg34]-GLP-1-(7-37)-peptidyl)-N{Epsilon}[2-[2-[2-[[2-[2-[2-[[2-[2-[2-[[2-[2-[2-[[(4S)-4-carboxy-4-[[4-[(19-carboxynonadecanoylamino)m … (peptide)
peptide: H[Aib]EGTFTSDVSSYLEEQAAREFIAWLVRGRGK([AEEA-AEEA-AEEA-AEEA-γGlu-Trx-C20 diacid])GGSK([AEEA-AEEA-AEEA-AEEA-γGlu-Trx-C20 diacid])
notes: Double-acylated, C-terminally extended GLP-1 analogue made by SPPS; also called 17
For the molecule B2, the figures for the IC50 with human GLP-1 receptor [1] and with human GLP-1 receptor [3] were 1.8 nM and 99 nM, respectively. In the assay with human GLP-1 receptor [2], the “EC50 (pM), in vitro potency” value stood at 12 pM.

B3: N{Alpha}([Aib8,Glu22,Arg26,Arg34]-GLP-1-(7-37)-peptidyl)-N{Epsilon}[2-[2-[2-[[2-[2-[2-[[(4S)-4-carboxy-4-[[4-[(19-carboxynonadecanoylamino)methyl]cyclohexanecar … (peptide)
peptide: H[Aib]EGTFTSDVSSYLEEQAAREFIAWLVRGRGK([AEEA-AEEA-γGlu-Trx-C20 diacid])GGSK([AEEA-AEEA-γGlu-Trx-C20 diacid])
notes: Double-acylated, C-terminally extended GLP-1 analogue made by SPPS
Regarding B3, the IC50 with human GLP-1 receptor [1] was 1.2 nM; with human GLP-1 receptor [3], 185 nM. The “EC50 (pM), in vitro potency” value in the assay with human GLP-1 receptor [2] turned out to be 43 pM.

B4: N{Alpha}([Aib8,Glu22,Arg26,Arg34]-GLP-1-(7-37)-peptidyl)-N{Epsilon}[2-[2-[2-[[2-[2-[2-[[(4S)-4-carboxy-4-[[4-[(19-carboxynonadecanoylamino)methyl]cyclohexanecar … (peptide)
peptide: H[Aib]EGTFTSDVSSYLEEQAAREFIAWLVRGRGK([AEEA-AEEA-γGlu-Trx-C20 diacid])SPEK([AEEA-AEEA-γGlu-Trx-C20 diacid])
notes: Double-acylated, C-terminally extended GLP-1 analogue made by SPPS; also called 11
With B4, the IC50 was determined as 1.5 nM with human GLP-1 receptor [1] and 116 nM with human GLP-1 receptor [3]. Besides, the “EC50 (pM), in vitro potency” value with human GLP-1 receptor [2] is 27 pM.

B5: N{Epsilon-23}-[2-[2-[2-[[2-[2-[2-[[(4S)-4-carboxy-4-[[4-[(19-carboxynonadecanoylamino)methyl]cyclohexanecarbonyl]amino]butanoyl]amino]ethoxy]ethoxy]acetyl]amino … (peptide)
peptide: H[Aib]EGTFTSDVSSYLEEK([AEEA-AEEA-γGlu-Trx-C20 diacid])AAREFIAWLVRGRGGGGSK([AEEA-AEEA-γGlu-Trx-C20 diacid])
notes: as for B3
For the molecule B5, the IC50 is 0.85 nM in the assay with human GLP-1 receptor [1] and 113 nM with human GLP-1 receptor [3]. The “EC50 (pM), in vitro potency” value in the assay with human GLP-1 receptor [2] stood at 74 pM.

B6: N{Epsilon-36}-[2-[2-[2-[[2-[2-[2-[[(4S)-4-carboxy-4-[[4-[(19-carboxynonadecanoylamino)methyl]cyclohexanecarbonyl]amino]butanoyl]amino]ethoxy]ethoxy]acetyl]amino … (peptide)
peptide: H[Aib]EGTFTSDVSSYLEEQAAREFIAWLVRGK([AEEA-AEEA-γGlu-Trx-C20 diacid])GEGPAK([AEEA-AEEA-γGlu-Trx-C20 diacid])
notes: Double-acylated, C-terminally extended GLP-1 analogue made by SPPS; also called 16
In the case of B6, the IC50 with human GLP-1 receptor [1] worked out at 1.4 nM; in the assay with human GLP-1 receptor [3], 602 nM. The “EC50 (pM), in vitro potency” value with human GLP-1 receptor [2] turned out to be 25 pM.

B7: N{Epsilon-18}-[2-[2-[2-[[2-[2-[2-[[(4S)-4-carboxy-4-[[4-[(19-carboxynonadecanoylamino)methyl]cyclohexanecarbonyl]amino]butanoyl]amino]ethoxy]ethoxy]acetyl]amino … (peptide)
peptide: H[Aib]EGTFTSDVSK([AEEA-AEEA-γGlu-Trx-C20 diacid])YLEEQAAREFIAWLVRGRGGGGSK([AEEA-AEEA-γGlu-Trx-C20 diacid])
notes: as for B3
For the molecule B7, the IC50 with human GLP-1 receptor [1] was 1 nM; with human GLP-1 receptor [3], at least 1000 nM. In the assay with human GLP-1 receptor [2], the “EC50 (pM), in vitro potency” value was found to be 93 pM.

B8: N{Alpha}([Aib8,Glu22,Arg26,Arg34]-GLP-1-(7-37)-peptidyl)-N{Epsilon}[2-[2-[2-[[2-[2-[2-[[(4S)-4-carboxy-4-[[4-[(19-carboxynonadecanoylamino)methyl]cyclohexanecar … (peptide)
peptide: H[Aib]EGTFTSDVSSYLEEQAAREFIAWLVRGRGK([AEEA-AEEA-γGlu-Trx-C20 diacid])PEGK([AEEA-AEEA-γGlu-Trx-C20 diacid])
notes: Double-acylated, C-terminally extended GLP-1 analogue made by SPPS; also called 12
Turning to B8, the IC50 was found to be 1.4 nM with human GLP-1 receptor [1] and 212 nM with human GLP-1 receptor [3]. Besides, in the assay with human GLP-1 receptor [2], the “EC50 (pM), in vitro potency” value was found to be 24 pM.

B9: N{Epsilon-31}-[2-[2-[2-[[2-[2-[2-[[(4S)-4-carboxy-4-[[4-[(19-carboxynonadecanoylamino)methyl]cyclohexanecarbonyl]amino]butanoyl]amino]ethoxy]ethoxy]acetyl]amino … (peptide)
peptide: H[Aib]EGTFTSDVSSYLEEQAAREFIAK([AEEA-AEEA-γGlu-Trx-C20 diacid])LVRGRGGGGSK([AEEA-AEEA-γGlu-Trx-C20 diacid])
notes: as for B3
As to B9, the IC50 with human GLP-1 receptor [1] is 1.4 nM; in the assay with human GLP-1 receptor [3] it was at least 1000 nM. The “EC50 (pM), in vitro potency” value in the assay with human GLP-1 receptor [2] worked out at 36 pM.

B10: N{Alpha}([Aib8,Glu22,Arg26,Arg34]-GLP-1-(7-37)-peptidyl)-N{Epsilon}[2-[2-[2-[[2-[2-[2-[[(4S)-4-carboxy-4-[[4-[(19-carboxynonadecanoylamino)methyl]cyclohexanecar … (peptide)
peptide: H[Aib]EGTFTSDVSSYLEEQAAREFIAWLVRGRGK([AEEA-AEEA-γGlu-Trx-C20 diacid])SAEK([AEEA-AEEA-γGlu-Trx-C20 diacid])
notes: Double-acylated, C-terminally extended GLP-1 analogue made by SPPS; also called 13
On to B10, for which the IC50 stood at 1.4 nM in the assay with human GLP-1 receptor [1] and 160 nM in the assay with human GLP-1 receptor [3]. In addition, in the assay with human GLP-1 receptor [2], the “EC50 (pM), in vitro potency” value came to 24 pM.

B11: N{Epsilon-36}-[2-[2-[2-[[2-[2-[2-[[(4S)-4-carboxy-4-[[4-[(19-carboxynonadecanoylamino)methyl]cyclohexanecarbonyl]amino]butanoyl]amino]ethoxy]ethoxy]acetyl]amino … (peptide)
peptide: H[Aib]EGTFTSDVSSYLEEQAAREFIAWLVRGK([AEEA-AEEA-γGlu-Trx-C20 diacid])GGGGSK([AEEA-AEEA-γGlu-Trx-C20 diacid])
notes: as for B3
Consider B11, for which the 50% inhibitory concentration (IC50) with human GLP-1 receptor [1] came out at 1.1 nM; with human GLP-1 receptor [3], 101 nM. Also, the “EC50 (pM), in vitro potency” value with human GLP-1 receptor [2] was 61 pM.

B12: N{Epsilon-27}-[(2S)-2-amino-6-[[(2S)-2-amino-6-[[(4S)-4-carboxy-4-(19-carboxynonadecanoylamino)butanoyl]amino]hexanoyl]amino]hexanoyl]-[Aib8,Glu22,Arg26,Lys27,A … (peptide)
peptide: H[Aib]EGTFTSDVSSYLEEQAARKFIAWLVRGRGGGGSK
modifications: not fully specified (residues 21, 36)
notes: Double-acylated, C-terminally extended GLP-1 analogue made by SPPS; The printed name has a typographic slip ('R2S)' for '[(2S)')
In the case of B12, the IC50 with human GLP-1 receptor [1] turned out to be 0.43 nM; in the assay with human GLP-1 receptor [3], 383 nM. Further, in the assay with human GLP-1 receptor [2], the “EC50 (pM), in vitro potency” value is 260 pM.
